{
  "source": "patent US20130157959",
  "proteins": {"B1": {"name": "GST-Hades Ring protein (RP) (protein)", "chain": "RLKQMQEEFQEHEAQLLSRAKPEDRESLKSACVVCLSSFKSCVFLECGHVCSCTECYRALPEPKKCPICRQAITRVIPLYN"}},
  "key": {"[1]": {"target": "in vitro translated 35S-labelled mutant p53 K24R, P04637"}, "[2]": {"target": "in vitro translated 35S-labelled p53 (wild-type), P04637"}},
  "data": [
    {"protein": "B1", "values": [
      {"measurement": "in vitro ubiquitination of 35S-labelled p53 K24R, SDS-PAGE and autoradiography", "setting": "[1]", "value": "the in vitro translated p53 K24R was not ubiquitinated by Hades"},
      {"measurement": "in vitro ubiquitination of 35S-labeled p53 with E1 and several E2 enzymes, autoradiography", "setting": "[2]", "value": "The 35S-labeled p53 was polyubiquitinated in an Ubc5a or Ubc5c-dependent manner"},
      {"measurement": "in vitro ubiquitination of 35S-labelled p53, SDS-PAGE and autoradiography", "setting": "[2]", "value": "WT p53 was ubiquitinated by Hades"},
      {"measurement": "in vitro ubiquitination of p53 with E1, E2 (UbcH5c) and His-ubiquitin, anti-p53 immunoblot", "setting": "[2]", "value": "The p53 ubiquitination was only induce by Hades"},
      {"measurement": "in vitro ubiquitination of p53 lysine mutants, immunoblot", "setting": "mutant p53 6CKR, P04637", "value": "Hades was still able to ubiquitinate a form of p53 in which all six lysines was mutated (6CKR)"}
    ]}
  ]
}
